Measured values reported in paper PMC5641120, “Small-molecule inhibitors of PD-1/PD-L1 immune checkpoint alleviate the PD-L1-induced exhaustion of T-cells” (Oncotarget, 2017).

System: PD-1/sPD-L1
Experiment: PD-1/sPD-L1 effector assay (anti-CD3 activated ECs, luciferase)
Assay type: cell-based, human
Settings: anti-CD3 with sPD-L1 (wt or mutein), 24 h, luciferase reporter
Experimental: To evaluate the potential of BMS compounds in abrogating the inhibitory effect of sPD-L1 on the activation of T cells, sPD-L1 was pre-incubated with tested compounds and presented to ECs together with the anti-CD3-activating antibody.
For the evaluation of the BMS impact on T cell inhibition by soluble PD-L1, the ECs were stimulated with the anti-CD3 antibody in the presence of the recombinant human sPD-L1. For this, the 96-well white flat bottom plates were coated overnight at 4°C with 5 μg/ml of the anti-CD3 antibody or the isotype control solution in PBS. […] Then, 15 μl of the solution was added to each well of the antibody-coated plate. ECs were centrifuged and diluted to 50 000 per ml, and 60 μl of the cell solution was added to each well. The final concentration of sPD-L1 was 10 μg/ml (0.6 μM). The final concentrations of the BMS compounds were: 0.12, 0.3, 1.2 and 3 μM, giving the following BMS:sPD-L1 molar ratios: 1:5, 1:2, 2:1 and 5:1. The cells were cultured for 24 h and the luciferase activity assay was performed using the Bio-Glo Luciferase Assay System (Promega) according to the manufacturer's instructions.

B1: sPD-L1: recombinant human soluble PD-L1 (residues 18–134, C-terminal His-tag) (protein)
chain: AFTVTVPKDLYVVEYGSNMTIECKFPVEKQLDLAALIVYWEMEDKNIIQFVHGEEDLKVQHSSYRQRARLLKDQLSLGNAALQITDVKLQDAGVYRCMISYGGADYKRITVKVNAPY
modifications: NTA-Atto 647 N fluorescent dye on the His-tag (flow cytometry only); uniform 15N labelling (NMR titration with compounds only); left off: His-tag, C-terminal, kept
effect of soluble PD-L1 protein on anti-CD3 mediated activation of ECs: decreased reporter expression to about half
